Test [1] addresses T1, human αVβ6 integrin on cells (human, UniProt P06756 31-1048; P18564 22-788). Kind of test: cell-based or functional assay.
The target of test [2] is α4β1 integrin (on J6.77 cells) (UniProt P13612 34-1032; P05556 21-798, limits assumed). Put plainly: cell-based or functional assay.
In test [3] the target is α5β1 integrin (on K562 cells) (UniProt P08648 42-1049; P05556 21-798, limits assumed). Kind of test: cell-based or functional assay.
For test [4], the target named is T1, human αVβ6 integrin on cells. Put plainly: FACS, 293T-αVβ6 cells, antibody at 5 ug/ml. For orientation: Flow cytometry measures light scatter and fluorescence of single cells or particles in a stream.
Experimental: (§1) Cells were divided between reactions in a V-bottom 96-well plate (Sarstedt), and the cells in the plate were pelleted at 1500 rpm for 3 minutes, after which the HBSS supernatant was removed. The primary antibody was added at the concentration indicated in Table 19 in a volume of 50 μL, and the cells were resuspended and thereafter incubated on ice for 60 minutes. After incubation, the cells were pelleted by centrifugation at 1500 rpm for 3 minutes, resuspended in 100 μL wash buffer, and then pelleted again. Cells were then resuspended in the appropriate secondary antibody at 2 μg/ml with 10 μg/ml 7AAD, and stained on ice for 7 minutes, after which 150 μL of wash buffer was added, and cells were pelleted at 1500 rpm for 3 minutes and then resuspended in 100 μL of HBSS with 1% BSA. Samples were read on a FACS machine with a HTS attachment and the data was analyzed using Cell Quest Pro software.
Test [5] shares this target. Put plainly: FACS, 293T-αVβ6 cells, antibody at 20 ug/ml.
Experimental: as §1
Test [6] shares this target. Kind of test: FACS, 293T-αVβ6 cells, antibody at 1.25 ug/ml.
Experimental: as §1
Test [7] shares this target. Put plainly: FACS titration on K562 cells expressing human αVβ6 (as Example 18).
Test [8] has the same target. Put plainly: FACS titration on K562 cells expressing human αVβ6 (as Example 18); 95% CI ±15.9 pM.

These results are taken from patent US20080057063A1 (published 2008).

A word on the Kd: it is the equilibrium constant for the complex coming apart. A lower Kd goes with a tighter complex.

T1 sequence (P06756 31-1048, chain 1 of 2): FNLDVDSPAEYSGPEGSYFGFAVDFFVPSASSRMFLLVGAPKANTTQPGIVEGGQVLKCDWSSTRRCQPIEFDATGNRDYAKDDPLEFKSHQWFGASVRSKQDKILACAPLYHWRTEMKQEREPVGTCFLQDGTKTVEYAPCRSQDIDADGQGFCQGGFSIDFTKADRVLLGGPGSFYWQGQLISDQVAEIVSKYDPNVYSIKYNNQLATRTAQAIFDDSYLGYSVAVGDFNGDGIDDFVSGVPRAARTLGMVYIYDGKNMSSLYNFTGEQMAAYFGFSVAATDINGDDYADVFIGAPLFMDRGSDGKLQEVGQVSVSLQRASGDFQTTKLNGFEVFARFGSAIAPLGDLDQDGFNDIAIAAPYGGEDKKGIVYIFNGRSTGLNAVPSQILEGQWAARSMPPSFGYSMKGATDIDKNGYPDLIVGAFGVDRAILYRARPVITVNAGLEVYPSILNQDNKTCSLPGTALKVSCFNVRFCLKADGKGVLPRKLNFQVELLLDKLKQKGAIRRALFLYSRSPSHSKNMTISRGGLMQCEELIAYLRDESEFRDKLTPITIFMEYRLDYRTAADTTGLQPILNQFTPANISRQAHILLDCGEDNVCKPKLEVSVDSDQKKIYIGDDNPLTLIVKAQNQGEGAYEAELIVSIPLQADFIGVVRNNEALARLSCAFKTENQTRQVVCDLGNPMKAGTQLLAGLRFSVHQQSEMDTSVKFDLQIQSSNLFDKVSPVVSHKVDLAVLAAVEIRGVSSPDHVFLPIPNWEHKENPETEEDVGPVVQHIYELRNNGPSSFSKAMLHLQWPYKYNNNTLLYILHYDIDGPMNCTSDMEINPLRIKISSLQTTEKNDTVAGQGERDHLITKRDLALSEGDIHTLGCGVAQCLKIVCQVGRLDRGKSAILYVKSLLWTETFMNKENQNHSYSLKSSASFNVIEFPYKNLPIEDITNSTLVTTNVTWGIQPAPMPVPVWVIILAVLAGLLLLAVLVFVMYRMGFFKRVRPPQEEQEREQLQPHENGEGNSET
T1 sequence (P18564 22-788, chain 2 of 2): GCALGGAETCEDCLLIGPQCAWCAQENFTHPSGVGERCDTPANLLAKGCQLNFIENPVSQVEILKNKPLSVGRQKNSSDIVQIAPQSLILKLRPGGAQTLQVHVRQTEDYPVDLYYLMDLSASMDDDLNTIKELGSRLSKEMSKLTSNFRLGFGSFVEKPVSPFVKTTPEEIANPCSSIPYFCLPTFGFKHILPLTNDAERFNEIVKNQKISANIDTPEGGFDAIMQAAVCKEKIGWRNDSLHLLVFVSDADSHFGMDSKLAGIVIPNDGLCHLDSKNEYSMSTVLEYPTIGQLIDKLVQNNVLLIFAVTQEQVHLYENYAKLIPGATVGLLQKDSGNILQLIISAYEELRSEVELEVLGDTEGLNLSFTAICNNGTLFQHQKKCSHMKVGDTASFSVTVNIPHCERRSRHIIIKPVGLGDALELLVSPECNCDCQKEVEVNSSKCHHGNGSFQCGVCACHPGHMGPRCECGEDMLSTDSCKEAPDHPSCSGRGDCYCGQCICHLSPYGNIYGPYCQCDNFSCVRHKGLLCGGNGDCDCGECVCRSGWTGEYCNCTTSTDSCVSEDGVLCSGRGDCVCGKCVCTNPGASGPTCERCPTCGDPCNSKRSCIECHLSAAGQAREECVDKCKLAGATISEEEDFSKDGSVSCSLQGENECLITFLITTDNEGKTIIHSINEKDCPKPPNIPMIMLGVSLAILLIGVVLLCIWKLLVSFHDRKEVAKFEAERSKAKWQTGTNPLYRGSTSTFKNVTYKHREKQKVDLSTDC
Chain of α5β1 integrin (on K562 cells) (P08648 42-1049 limits assumed, chain 1 of 2): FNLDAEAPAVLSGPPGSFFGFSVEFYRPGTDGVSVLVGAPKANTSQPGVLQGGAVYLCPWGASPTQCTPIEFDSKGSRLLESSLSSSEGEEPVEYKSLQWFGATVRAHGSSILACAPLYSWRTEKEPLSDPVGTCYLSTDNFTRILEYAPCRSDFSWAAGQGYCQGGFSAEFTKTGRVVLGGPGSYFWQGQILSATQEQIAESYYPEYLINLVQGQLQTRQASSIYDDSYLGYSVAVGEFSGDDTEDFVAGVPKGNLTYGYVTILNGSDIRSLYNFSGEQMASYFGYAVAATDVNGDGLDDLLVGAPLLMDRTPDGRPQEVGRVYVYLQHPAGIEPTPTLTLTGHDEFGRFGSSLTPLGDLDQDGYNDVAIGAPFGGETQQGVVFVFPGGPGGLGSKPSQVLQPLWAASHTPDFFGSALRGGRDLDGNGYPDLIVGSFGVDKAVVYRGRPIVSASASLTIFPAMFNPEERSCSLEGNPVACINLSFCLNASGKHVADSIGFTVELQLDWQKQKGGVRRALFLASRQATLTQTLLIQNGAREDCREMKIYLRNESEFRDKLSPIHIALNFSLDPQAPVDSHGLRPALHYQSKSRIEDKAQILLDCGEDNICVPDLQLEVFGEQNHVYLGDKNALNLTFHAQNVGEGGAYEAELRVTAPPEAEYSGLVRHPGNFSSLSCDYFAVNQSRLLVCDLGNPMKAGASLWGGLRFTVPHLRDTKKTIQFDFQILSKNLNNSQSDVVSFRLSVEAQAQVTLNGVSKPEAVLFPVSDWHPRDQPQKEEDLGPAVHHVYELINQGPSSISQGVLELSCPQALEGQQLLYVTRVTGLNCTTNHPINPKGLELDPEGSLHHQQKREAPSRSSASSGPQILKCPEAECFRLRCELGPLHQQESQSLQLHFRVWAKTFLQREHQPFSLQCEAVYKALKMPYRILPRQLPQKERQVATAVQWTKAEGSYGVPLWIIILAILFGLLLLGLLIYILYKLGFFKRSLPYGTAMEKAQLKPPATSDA
Chain of α5β1 integrin (on K562 cells) (P05556 21-798 limits assumed, chain 2 of 2): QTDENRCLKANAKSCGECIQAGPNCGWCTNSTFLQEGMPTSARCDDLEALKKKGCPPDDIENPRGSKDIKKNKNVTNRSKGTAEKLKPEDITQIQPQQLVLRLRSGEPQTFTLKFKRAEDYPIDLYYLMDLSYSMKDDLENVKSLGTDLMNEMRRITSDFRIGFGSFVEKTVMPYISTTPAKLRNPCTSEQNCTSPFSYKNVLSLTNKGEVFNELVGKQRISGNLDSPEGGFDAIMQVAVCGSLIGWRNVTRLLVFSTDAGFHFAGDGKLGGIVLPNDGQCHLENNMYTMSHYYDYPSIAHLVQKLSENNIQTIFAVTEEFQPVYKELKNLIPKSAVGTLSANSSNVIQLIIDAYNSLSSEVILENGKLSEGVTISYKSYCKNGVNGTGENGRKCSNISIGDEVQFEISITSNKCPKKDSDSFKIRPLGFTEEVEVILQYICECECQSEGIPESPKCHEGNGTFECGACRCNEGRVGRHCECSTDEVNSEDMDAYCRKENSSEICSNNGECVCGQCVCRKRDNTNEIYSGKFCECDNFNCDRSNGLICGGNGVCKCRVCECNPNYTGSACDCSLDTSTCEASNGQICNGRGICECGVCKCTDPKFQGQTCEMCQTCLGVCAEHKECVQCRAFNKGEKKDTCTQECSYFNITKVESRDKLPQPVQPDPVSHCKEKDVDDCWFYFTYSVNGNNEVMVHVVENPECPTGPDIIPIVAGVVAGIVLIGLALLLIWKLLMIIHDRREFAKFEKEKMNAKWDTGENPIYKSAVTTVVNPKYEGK

B1: sc 264 RAD (antibody, V domains shown)
VH: QVQLQESGPGLVKPSQTLSLTCTVSGGSISSGGYYWSWIRQHPGKGLEWIGYIYYSGRTYNNPSLKSRVTISVDTSKNQFSLKLSSVTAADTAVYYCARVATGRADYHFYAMDVWGQGTTVTVSS
VL: SYELTQPSSVSVSPGQTARITCSGDVLAKKSARWFHQKPGQAPVLVIYKDSERPSGIPERFSGSSSGTTVTLTISGAQVEDEAAYYCYSAADNNLVFGGGTKLTVL
notes: Variable domains only
For B1, the “IC50, n = 1 (HT29 adhesion to TGFβLAP)” value in test [1] was 0.013 µg/mL. Also, the “IC50, n = 2 (HT29 adhesion to TGFβLAP)” value in test [1] is 0.013 µg/mL. The “IC50, n = 3 (HT29 adhesion to TGFβLAP)” value in test [1] was found to be 0.039 µg/mL. Moreover, the “Percent Inhibition (J6.77 adhesion to CS-1 peptide of fibronectin, 5 ug/ml)” value in test [2] is -2%. In addition, in test [3], the “% Inhibition (K562 adhesion to fibronectin)” value was found to be 6%. Also, the “Geometric Mean Shift” value in test [4] amounted to 6840; in test [5], 7240; in test [6], 4890. The Kd in test [7] is below 0.05 nM; in test [8], 0.0463 nM.
